Values of other authors as cited in PMC4623604, “Discovery of Small Molecules that Inhibit the Disordered Protein, p27^Kip1” (Scientific Reports, 2015).

Biological target: cyclin A (Homo sapiens) (UniProt P20248)
Sequence (P20248 whole entry): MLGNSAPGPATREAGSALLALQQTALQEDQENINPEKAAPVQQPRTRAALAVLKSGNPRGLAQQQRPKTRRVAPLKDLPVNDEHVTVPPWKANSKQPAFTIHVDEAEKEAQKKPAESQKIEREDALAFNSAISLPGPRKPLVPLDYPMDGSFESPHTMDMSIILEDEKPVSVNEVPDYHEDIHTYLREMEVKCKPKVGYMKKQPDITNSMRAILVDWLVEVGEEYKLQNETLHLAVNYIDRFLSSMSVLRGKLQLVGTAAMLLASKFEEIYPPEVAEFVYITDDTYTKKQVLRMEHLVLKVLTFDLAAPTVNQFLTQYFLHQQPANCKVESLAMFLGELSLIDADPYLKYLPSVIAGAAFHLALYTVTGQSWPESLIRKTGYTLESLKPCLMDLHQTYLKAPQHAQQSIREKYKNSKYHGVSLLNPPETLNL

For p27 D1 (from UniProt P46527), the Kd is listed as 42 nM.
